According to US20040058356A1, “Methods for global profiling gene regulatory element activity” (priority 2001, published 2004):

Tests used:
PC12 cells [1] = assay: Global regulatory element activity profiling with PC12 nuclear extracts; assay type: cell-based, rat; details: treated vs untreated PC12 cells, FIG. 3
Protocol: Rat pheochromocytoma (PC) cells (cell line PC12; ATCC Number CRL-1721) were grown in high glucose Dulbecco's Modified Eagle Medium (DMEM) in the presence of 10% horse serum, and then transferred to serum-free DMEM plus N2 supplement (Invitrogen) containing 200 ng/ml Nerve Growth Factor-beta (NGF-beta; Sigma). After a 5 hour exposure, the cells were removed from the dishes, washed with PBS, and collected by centrifugation for regulatory element activity profiling.
Global regulatory element activity profiling was carried out using nuclear extracts from cells that were either untreated or treated with NGF-beta. Known transcription factor binding sites present in the DNA sequences were counted as described for Jurkat cells. Bars indicate the percentage of DNA fragments containing selected cis sites that were isolated in binding reactions containing nuclear extracts from either untreated (white bars) or NGFbeta-treated (black bars) PC12 cells. It can be seen that NGF treatment led to an increase in binding activity for AP 1, ATF and TCF11 (among others), while other activities, for example, E2F and RFX1, were reduced after NGF treatment.

PC12 cells [2] = assay: EMSA with 32P-labeled transcription factor binding site oligonucleotides, PC12 nuclear extracts; assay type: cell-based, rat; details: treated vs untreated PC12 cells
Protocol: Confirmation of the increase in the transcription factor AP-1 binding activity was performed by electrophoretic mobility shift assay (EMSA). Nuclear extracts obtained from PC cells either treated with NGF-beta or untreated were combined in separate binding reactions. Each reaction also contained a ^32P-labeled oligonucleotide comprising a binding site for a specific transcription factor. […] In contrast, when the oligonucleotide was specific for the OCT1 binding site (lanes 7 and 8), no increase in gel-shifted material was observed.

B1: Nerve Growth Factor-beta (protein, UniProt P01139 122-241, looked up)
Beta-nerve growth factor: SSTHPVFHMGEFSVCDSVSVWVGDKTTATDIKGKEVTVLAEVNINNSVFRQYFFETKCRASNPVESGCRGIDSKHWNSYCTTTHTFVKALTTDEKQAAWRFIRIDTACVCVLSRKATRRG
modifications: Beta-nerve growth factor
notes: Nerve Growth Factor-beta (Sigma) used to treat PC12 cells
With B1 the “AP 1 binding activity” value (PC12 cells [1]) was “increase”, the ATF binding activity (PC12 cells [1]) was “increase” and the E2F binding activity (PC12 cells [1]) was “reduced”. For the same molecule, the RFX1 binding activity (PC12 cells [1]) was “reduced”, the TCF11 binding activity (PC12 cells [1]) was “increase” and the “AP-1 binding site gel-shifted material (DNA-protein complexes)” value (PC12 cells [2]; FIG. 4 lanes 3 and 4) was “significant increase”. For the same molecule, the “OCT1 binding site gel-shifted material” value (PC12 cells [2]; FIG. 4 lanes 7 and 8) was “no increase”.
